The source of these data is patent US20220054630A1 (published 2022).

The target in the assay is T1, wild-type soluble E2 (sE2), HCV isolate H77C, residues 384-661 (UniProt P27958 384-661).
T1 chain: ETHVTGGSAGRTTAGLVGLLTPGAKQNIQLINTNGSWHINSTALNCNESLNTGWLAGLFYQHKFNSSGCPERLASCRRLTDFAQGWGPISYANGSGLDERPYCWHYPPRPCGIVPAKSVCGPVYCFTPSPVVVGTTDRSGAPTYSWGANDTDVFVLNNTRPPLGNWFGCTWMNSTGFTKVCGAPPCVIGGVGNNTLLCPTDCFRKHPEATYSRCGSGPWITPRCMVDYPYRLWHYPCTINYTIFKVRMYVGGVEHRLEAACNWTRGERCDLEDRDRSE
Put plainly: BLI. Background: BLI is a label-free optical method that tracks binding on a fibre tip over time.

B1: CD81 large extracellular loop (LEL) (receptor)
chain: FVNKDQIAKDVKQFYDQALQQAVVDDDANNAKAVVKTFHETLDCCGSSTLTALTTSVLKNNLCPSGSNIISNLFKEDCHQKIDDLFSGK
For orientation: Kd means a measure of binding affinity in units of concentration. In turn, B1 had a Kd of 22 nM.
